How the values were obtained:
Experiment in all cases: cell-based or functional assay
[1] = target: mouse FcγRIII on Jurkat/NFAT-Luc effector cells (mouse) (UniProt P08508)
[2] = target: human FcγRIIa, low-affinity R131 variant, on Jurkat/NFAT-Luc effector cells (human) (UniProt P12318)
[3] = target: human FcγRIIa, high-affinity H131 variant, on Jurkat/NFAT-Luc effector cells (human) (UniProt P12318)
[4] = target: human FcγRIIb on Jurkat/NFAT-Luc effector cells (human) (UniProt P31994)
[5] = target: mouse FcγRIV on Jurkat/NFAT-Luc effector cells (mouse)
Sequence of mouse FcγRIV on Jurkat/NFAT-Luc effector cells (mouse) (A0A0B4J1G0 21-203): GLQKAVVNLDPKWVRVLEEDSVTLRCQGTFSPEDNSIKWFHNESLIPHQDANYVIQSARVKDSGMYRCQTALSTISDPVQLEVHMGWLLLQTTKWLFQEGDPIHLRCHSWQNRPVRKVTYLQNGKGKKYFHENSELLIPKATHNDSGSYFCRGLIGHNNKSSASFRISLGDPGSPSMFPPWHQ

Sequence of human FcγRIIb on Jurkat/NFAT-Luc effector cells (human) (P31994 43-310): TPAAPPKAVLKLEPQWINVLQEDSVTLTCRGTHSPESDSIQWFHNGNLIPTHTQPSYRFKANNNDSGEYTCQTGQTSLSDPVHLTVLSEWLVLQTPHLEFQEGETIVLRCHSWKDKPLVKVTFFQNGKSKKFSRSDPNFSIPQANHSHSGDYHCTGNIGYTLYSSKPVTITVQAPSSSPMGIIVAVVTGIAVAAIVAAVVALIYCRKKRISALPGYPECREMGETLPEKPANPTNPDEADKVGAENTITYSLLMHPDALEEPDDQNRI
Sequence of human FcγRIIa, low-affinity R131 variant, on Jurkat/NFAT-Luc effector cells (human) (P12318 other isoform, or with tags, fused parts or gaps mutant limits assumed): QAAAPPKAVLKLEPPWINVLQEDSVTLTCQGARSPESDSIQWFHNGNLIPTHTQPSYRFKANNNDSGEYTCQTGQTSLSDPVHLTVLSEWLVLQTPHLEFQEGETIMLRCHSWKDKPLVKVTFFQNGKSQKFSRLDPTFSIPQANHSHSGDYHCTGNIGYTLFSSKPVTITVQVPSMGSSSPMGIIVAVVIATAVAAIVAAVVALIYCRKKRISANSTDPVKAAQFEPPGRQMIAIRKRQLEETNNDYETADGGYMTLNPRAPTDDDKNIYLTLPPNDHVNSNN
Sequence of human FcγRIIa, high-affinity H131 variant, on Jurkat/NFAT-Luc effector cells (human) (P12318 34-317, change not shown): as the sequence (P12318 other isoform, or with tags, fused parts or gaps mutant limits assumed) above, with R134H counted along it
Sequence of mouse FcγRIII on Jurkat/NFAT-Luc effector cells (mouse) (P08508 31-261): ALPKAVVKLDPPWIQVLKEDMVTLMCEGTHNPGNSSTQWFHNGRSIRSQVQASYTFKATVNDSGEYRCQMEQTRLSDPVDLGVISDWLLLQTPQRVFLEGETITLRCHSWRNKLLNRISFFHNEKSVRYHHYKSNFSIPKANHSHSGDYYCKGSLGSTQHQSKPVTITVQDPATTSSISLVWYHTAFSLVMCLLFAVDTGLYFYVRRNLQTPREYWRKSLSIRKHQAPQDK

Maximum luminescence (RLU), FcR reporter bioassay [1]: 17500 RLU
EC50 (µg/mL), FcR reporter bioassay [2]: 0.21 µg/mL
Maximum luminescence (RLU), FcR reporter bioassay [2]: 2640 RLU
EC50 (µg/mL), FcR reporter bioassay [3]: 0.05 µg/mL
Maximum luminescence (RLU), FcR reporter bioassay [3]: 973 RLU
EC50 (µg/mL), FcR reporter bioassay [4]: 0.17 µg/mL
Maximum luminescence (RLU), FcR reporter bioassay [4]: 5800 RLU
EC50 (µg/mL), FcR reporter bioassay [5]: 2.21 µg/mL
Maximum luminescence (RLU), FcR reporter bioassay [5]: 990 RLU
Substance: Ipilimumab (antibody)

From patent US20230265192A1
